The assay addresses T1, rat PLCγ1 isolated cSH2 domain (H663-E759) (rat, UniProt P10686 663-759).
T1 sequence (looked up): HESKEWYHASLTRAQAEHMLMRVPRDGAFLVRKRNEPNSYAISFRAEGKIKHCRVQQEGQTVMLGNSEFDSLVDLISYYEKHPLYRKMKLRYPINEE
Briefly: NMR titration.

B1: rat PLCγ1 isolated split PH (sPH) domain (D485-N529/N865-R936 with a C-terminal 6X-His tag) (domain or fragment, UniProt P10686 485-529, looked up)
chain: DISNSIKNGILYLEDPVNHEWYPHYFVLTSSKIYYSEETSSDQGNNSPLGDLLRGVLDVPACQIAIRPEGKNNRLFVFSISMPSVAQWSLDVAADSQEELQDWVKKIREVAQTADAR
As to B1, the binding result was “binds”.
